Experimental findings from US20140179896A1 (published 2014) are described below.

B1: E6 (designed binder)
chain: EVVAATPTSLLISWRHPHFPTRYYRITYGETGGNSPVQEFTVPLQPPTATISGLKPGVDYTITGYAVTDGWNGRLLSIPISINYRT
notes: Del 1-8 10Fn3 clone; Flag-tagged in vitro translated protein in the radioactive assay, His6-tagged E. coli protein in BIAcore; tags left out
B2: E25 (designed binder)
chain: B1 chain with D69L, G70E, W71R, L75E, S77M, I78T
notes: as for B1
B3: E28 (designed binder)
chain: B1 chain with D69L, G70E, W71R, L75E, S77M, I78V
notes: Del 1-8 10Fn3 clone; Flag-tagged in vitro translated protein in the radioactive assay; tag left out
B4: E9 (designed binder)
chain: B1 chain with D69E, G70E, W71R, L75T, S77R, I78T
notes: as for B3
B5: E5 (designed binder)
chain: B1 chain with W71Q, S77N, I78V
notes: as for B3
B6: E3 (designed binder)
chain: B1 chain with W71R, G73D, L75K, S77M, I78V
notes: as for B3
B7: K7 (designed binder)
chain: B1 chain with D69S, W71H, G73D, R74H, L75M, S77M
notes: Del 1-8
B8: K4 (designed binder)
chain: B1 chain with D69A, W71Y, G73D, R74Q, L75I, S77M, I78T
notes: Del 1-8
B9: K15 (designed binder)
chain: B1 chain with D69E, G70V, W71H, N72H, G73D, L75E, L76I, S77K, I78T
notes: Del 1-8
B10: K12 (designed binder)
chain: B1 chain with G70V, W71Y, G73D, R74H, L75E, L76I, S77K, I78T
notes: Del 1-8
B11: K9 (designed binder)
chain: B1 chain with D69F, W71L, N72Y, R74K, L75E, S77L
notes: Del 1-8
B12: K10 (designed binder)
chain: B1 chain with D69T, W71P, G73D, S77F, I78V
notes: Del 1-8
B13: K2 (designed binder)
chain: B1 chain with W71E, R74Q, L75F, S77L, I78V
notes: Del 1-8
B14: K5 (designed binder)
chain: B1 chain with D69M, W71P, G73D, R74N, L75E, S77L, I78T
notes: Del 1-8
B15: K1 (designed binder)
chain: B1 chain with D69M, W71L, N72Y, R74H, L75E, S77L, I78T
notes: Del 1-8
B16: K3 (designed binder)
chain: B1 chain with D69A, N72D, G73D, R74H, L75E, S77F
notes: Del 1-8
B17: K14 (designed binder)
chain: B1 chain with D69R, G70E, W71E, G73D, R74H, L75E, S77L
notes: Del 1-8
B18: K8 (designed binder)
chain: B1 chain with D69V, G70T, W71H, R74H, L75P, S77M, I78T
notes: Del 1-8; 279 used
B19: K13 (designed binder)
chain: B1 chain with D69L, G70A, W71L, N72K, R74H, L75E, S77L, I78T
notes: Del 1-8; 246 used
B20: K6 (designed binder)
chain: B1 chain with W71K, N72D, L75V, S77L, I78T
notes: Del 1-8
B21: K11 (designed binder)
chain: B1 chain with D69Q, G70A, W71P, G73D, L75V, S77Y, I78T
notes: Del 1-8
B22: E26 (designed binder)
chain: B1 chain with D69V, G70E, W71R, L75E, S77M, I78T
notes: 10Fn3 clone, Del 1-8
B23: E5 (designed binder)
chain: B1 chain with W71Q, S77N, I78V
notes: 10Fn3 clone, Del 1-8
B24: E3 (designed binder)
chain: B1 chain with W71R, G73D, L75K, S77M, I78V
notes: 10Fn3 clone, Del 1-8
B25: E23 (designed binder)
chain: EVVAATPTSLLISWRHHPHFPTRYYRITYGETGGNSPVQEFTVPLQPPTATISGLKPGVDYTITGYAVTVHWNGRELMTPISINYRT
notes: Del 1-8 10Fn3 clone; Flag tag not included

Positions count from the first letter of the chain named.

One assay deals with T1, human vascular endothelial growth factor receptor-2 Fc chimera (KDR-Fc) (human, UniProt P35968 20-764).
T1 construct: range 1-764; purchased from R&D Systems; also called hKDR; human VEGF-R2-Fc; not shown: human IgG1 Fc
The experiment in a line: BIAcore, target-Fc immobilized. On the procedure:
(§1) The binding kinetics of fibronectin-based scaffold proteins binding proteins to the target was measured using BIAcore 2000 biosensor (Pharmacia Biosensor). Human and mouse VEGF-R2-Fc fusions were immobilized onto a CM5 sensor chip and soluble binding proteins were injected at concentrations ranging from 0 to 100 nM in buffer 0 (10 mM HEPES, 150 mM NaCl, 0.005% Tween 20, pH 7.4). Sensorgrams were obtained at each concentration and were evaluated using a program, BIA Evaluation 2.0 (BIAcore), to determine the rate constants kₐ (kₒₙ) and kd (koff.) The affinity constant, KD was calculated from the ratio of rate constants […].
T1 sequence (P35968 20-764 limits assumed, change not shown, form in doubt): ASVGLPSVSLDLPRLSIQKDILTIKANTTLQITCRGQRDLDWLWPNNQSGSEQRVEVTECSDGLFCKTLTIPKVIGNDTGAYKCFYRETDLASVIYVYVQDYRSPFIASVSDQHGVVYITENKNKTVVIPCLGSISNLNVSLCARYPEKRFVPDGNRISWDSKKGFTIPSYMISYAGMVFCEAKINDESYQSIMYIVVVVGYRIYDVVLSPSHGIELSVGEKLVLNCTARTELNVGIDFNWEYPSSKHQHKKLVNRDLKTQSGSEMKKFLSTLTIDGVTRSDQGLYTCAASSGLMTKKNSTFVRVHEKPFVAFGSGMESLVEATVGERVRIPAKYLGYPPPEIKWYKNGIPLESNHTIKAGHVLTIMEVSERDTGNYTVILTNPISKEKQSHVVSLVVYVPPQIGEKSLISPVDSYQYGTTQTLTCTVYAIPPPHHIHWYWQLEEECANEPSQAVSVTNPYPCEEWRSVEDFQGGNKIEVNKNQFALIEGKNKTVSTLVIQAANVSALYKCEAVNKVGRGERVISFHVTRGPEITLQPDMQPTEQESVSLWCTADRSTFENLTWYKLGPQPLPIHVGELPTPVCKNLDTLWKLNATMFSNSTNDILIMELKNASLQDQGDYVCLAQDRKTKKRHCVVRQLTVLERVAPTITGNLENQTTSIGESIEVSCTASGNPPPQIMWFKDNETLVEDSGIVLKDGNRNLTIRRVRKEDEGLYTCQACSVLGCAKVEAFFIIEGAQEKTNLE
B1 returned an equilibrium dissociation constant (Kd) of 0.08 nM, an off-rate constant (koff) of 6.7e-05 s⁻¹ and a kon of 890000 M⁻¹ s⁻¹.

In turn, B2 came in with a dissociation constant (Kd) of 0.21 nM, a koff of 5.2e-05 s⁻¹ and an on-rate constant (kon) of 250000 M⁻¹ s⁻¹.

In another assay the target is T2, mouse vascular endothelial growth factor receptor-2 Fc chimera (Flk-1-Fc) (mouse, UniProt P35918 20-762).
T2 construct: purchased from R&D Systems; also called mouse VEGF-R2-Fc; not shown: Fc part of the purchased chimera
The experiment in a line: BIAcore, target-Fc immobilized. The method, then: as §1
T2 sequence (P35918 20-762, change not shown): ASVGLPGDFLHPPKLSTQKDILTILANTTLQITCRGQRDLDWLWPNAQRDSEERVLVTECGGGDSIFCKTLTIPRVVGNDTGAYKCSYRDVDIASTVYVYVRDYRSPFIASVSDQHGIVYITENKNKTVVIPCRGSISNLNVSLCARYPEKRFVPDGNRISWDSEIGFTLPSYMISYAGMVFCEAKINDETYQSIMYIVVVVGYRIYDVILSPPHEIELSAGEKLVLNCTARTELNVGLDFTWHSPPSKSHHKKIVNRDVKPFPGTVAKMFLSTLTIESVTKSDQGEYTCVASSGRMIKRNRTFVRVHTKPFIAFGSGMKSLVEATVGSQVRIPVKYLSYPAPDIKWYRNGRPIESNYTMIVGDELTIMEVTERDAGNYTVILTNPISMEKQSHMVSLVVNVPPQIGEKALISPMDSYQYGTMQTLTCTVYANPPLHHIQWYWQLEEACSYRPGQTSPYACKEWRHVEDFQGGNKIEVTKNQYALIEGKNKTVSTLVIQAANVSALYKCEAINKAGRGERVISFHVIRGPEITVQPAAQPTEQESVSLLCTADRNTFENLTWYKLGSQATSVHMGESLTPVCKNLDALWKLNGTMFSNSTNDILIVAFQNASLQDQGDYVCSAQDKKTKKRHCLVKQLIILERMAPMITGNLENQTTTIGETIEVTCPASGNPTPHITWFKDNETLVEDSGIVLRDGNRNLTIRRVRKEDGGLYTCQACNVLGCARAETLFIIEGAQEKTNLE
Molecule B1 displayed a dissociation constant (Kd) of 2.02 nM, a koff of 0.00136 s⁻¹ and a kon of 670000 M⁻¹ s⁻¹.

B2 registered a dissociation constant Kd of 0.76 nM, a koff of 0.000378 s⁻¹ and an on-rate (kon) of 500000 M⁻¹ s⁻¹.

The target of the next assay is T1, human vascular endothelial growth …. The experiment in a line: radioactive equilibrium binding assay. On the procedure:
(§2) To prepare ³⁵S-labeled binding proteins for analysis, mRNA was prepared as described above for RNA-protein fusion production but the linker ligation step was omitted. The mRNA was expressed using rabbit reticulocyte lysate translation kit (Ambion) in the presence of ³⁵S-labeled Met at 30° C. for 1 hour. Expressed protein was purified on M2-agarose Flag beads (Sigma) as described above. This procedure produced the encoded protein without the nucleic acid tail. In a direct binding assay, VEGF-R2-Fc fusions in concentrations ranging from 0 to 200 nM were added to a constant concentration of the purified protein (0.2 or 0.5 nM) and incubated at 30° C. for 1 hour in buffer B. The receptor-binder complexes were captured using Protein A magnetic beads for another 10 minutes at room temperature using a Kingfisher™ The beads were washed with six reaction volumes of buffer B. The protein was eluted from the beads with 100 μL of 0.1 M KOH. […] of the reaction mixture and elution were dried onto a LumaPlate-96 (Packard) and the amount of ³⁵S on the plate was measured using a TopCount NXT instrument (Packard). The amount of fibronectin-based scaffold protein bound to the target was estimated as a percent of radioactivity eluted from Protein A magnetic beads compare to radioactivity in the reaction mixture. Nonspecific binding of fibronectin-based scaffold proteins to the beads was determined by measuring binding in the absence of KDR-Fc and represented less than 1-2% of the input. Specific binding was obtained through subtraction of nonspecific binding from total binding. Data was analyzed using the GraphPad Prizm software (GraphPad Software, Inc, San Diego, Calif.), fitted using a one site, non-linear binding equation.
With B1, the Kd was less than 0.4 nM.

Turning to B3, the equilibrium dissociation constant (Kd) is less than 1.6 nM.

Consider B4, for which the Kd stood at 2.4 nM.

For B5, the Kd is less than 0.4 nM.

In the case of B2, the equilibrium dissociation constant (Kd) was less than 1.6 nM.

As to B6, the Kd is less than 1 nM.

The target of the next assay is T2, mouse vascular endothelial growth …. The experiment in a line: radioactive equilibrium binding assay. The method, then:
as §2
With B1, the Kd was determined as 7.1 nM.

B3: the equilibrium dissociation constant (Kd) is 2.1 nM.

Consider B4, for which the equilibrium dissociation constant (Kd) was less than 1.4 nM.

For B5, the Kd was determined as 3.2 nM.

Turning to B2, the Kd is less than 1.3 nM.

B6: the Kd amounted to 5.4 nM.

A further assay has as its target T3, human vascular endothelial growth factor receptor-2 Fc chimera (KDR-Fc) (human, UniProt P35968 20-764).
T3 construct: range 1-764; also called human VEGFR-2; VEGF-R2-Fc; not shown: human IgG1 Fc
The experiment in a line: radioactive equilibrium binding, KDR-Fc. On the procedure: as §2
T3 sequence (P35968 20-764 limits assumed, change not shown, form in doubt): as the sequence (P35968 20-764 limits assumed, change not shown, form in doubt) above
Regarding B7, the dissociation constant (Kd) was 2.2 nM.

Turning to B8, the dissociation constant (Kd) came out at 1.95 nM.

Regarding B9, the dissociation constant (Kd) worked out at 0.35 nM.

Turning to B10, the Kd came out at 0.62 nM.

As for B11, the dissociation constant Kd was 1.8 nM.

In the case of B12, the Kd is 0.57 nM.

As for B13, the Kd was found to be 1.19 nM.

As to B14, the dissociation constant (Kd) turned out to be 1.54 nM.

Consider B15, for which the dissociation constant (Kd) came to 0.55 nM.

As for B16, the Kd was found to be 1.15 nM.

On to B17, for which the dissociation constant (Kd) was 0.57 nM.

Turning to B18, the Kd was 3.3 nM.

Consider B19, for which the Kd was determined as 0.58 nM.

Turning to B20, the dissociation constant Kd is 0.93 nM.

Consider B21, for which the Kd amounted to 1.16 nM.

A further assay concerns the target T3, human vascular endothelial growth …. The experiment in a line: radioactive equilibrium binding, 1 nM KDR-Fc. Summed up: (§3)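 Percent of input bound is specific binding: total ³⁵S eluted from Protein A beads minus nonspecific bead binding without receptor. The binder (0.2 or 0.5 nM) was incubated with titrated VEGF-R2-Fc in buffer B, 30° C, 1 h.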
With B7, the “Binding to 1 nM KDR, %” value is 40%.

Consider B8, for which the “Binding to 1 nM KDR, %” value stood at 38%.

For the molecule B9, the “Binding to 1 nM KDR, %” value was determined as 25%.

Turning to B10, the “Binding to 1 nM KDR, %” value stood at 29%.

With B11, the “Binding to 1 nM KDR, %” value is 35%.

As to B12, the “Binding to 1 nM KDR, %” value worked out at 33%.

For B13, the “Binding to 1 nM KDR, %” value was determined as 48%.

Regarding B14, the “Binding to 1 nM KDR, %” value was found to be 47%.

For the molecule B15, the “Binding to 1 nM KDR, %” value turned out to be 48%.

In the case of B16, the “Binding to 1 nM KDR, %” value turned out to be 45%.

B17: the “Binding to 1 nM KDR, %” value came out at 20%.

With B18, the “Binding to 1 nM KDR, %” value is 18%.

With B19, the “Binding to 1 nM KDR, %” value amounted to 17%.

Turning to B20, the “Binding to 1 nM KDR, %” value turned out to be 27%.

Take B21: the “Binding to 1 nM KDR, %” value was 24%.

The target of another assay is T4, human vascular endothelial growth factor receptor-2 Fc chimera (KDR-Fc) (human, UniProt P35968 20-764).
T4 construct: range 1-764; also called human VEGFR-2; not shown: human IgG1 Fc
The experiment in a line: radioactive equilibrium binding assay, KDR-Fc. The method, then:
as §2
T4 sequence (P35968 20-764 limits assumed, change not shown, form in doubt): as above
Turning to B22, the Kd turned out to be 1.66 nM.

B23: the Kd amounted to 0.4 nM.

B24: the dissociation constant Kd was 0.96 nM.

For another assay, the target named is T5, mouse vascular endothelial growth factor receptor-2 Fc chimera (Flk-1-Fc) (mouse, UniProt P35918 20-762).
T5 construct: Bought from R&D Systems; also called mouse VEGFR-2; not shown: Fc part of the purchased chimera, not specified
The experiment in a line: radioactive equilibrium binding assay, Flk-1-Fc. On the procedure:
as §2
T5 sequence (P35918 20-762, change not shown): as the sequence (P35918 20-762, change not shown) above
On to B22, for which the dissociation constant (Kd) amounted to 2.05 nM.

Consider B23, for which the dissociation constant (Kd) is 3.2 nM.

For B24, the Kd came to 5.4 nM.

The next assay deals with T4, human vascular endothelial growth …. The experiment in a line: radioactive equilibrium binding assay, 1 nM KDR-Fc, % of input bound. In outline: as §3
B22: the “Binding to 1 nM KDR, %” value is 27%.

B23: the “Binding to 1 nM KDR, %” value came to 26%.

With B24, the “Binding to 1 nM KDR, %” value was 37%.

For the next assay, the target named is T5, mouse vascular endothelial growth …. The experiment in a line: radioactive equilibrium binding assay, 1 nM Flk-1-Fc, % of input bound. Summed up:
as §3
Take B22: the “Binding to 1 nM Flk-1, %” value worked out at 20%.

With B23, the “Binding to 1 nM Flk-1, %” value turned out to be 10%.

B24: the “Binding to 1 nM Flk-1, %” value was found to be 14%.

The next assay concerns the target T6, human vascular endothelial growth factor receptor-2 Fc chimera (KDR-Fc) (human, UniProt P35968 20-764).
T6 construct: range 1-764; also called human VEGFR-2; hKDR; not shown: human IgG1 Fc
The experiment in a line: binding to 1 nM KDR-Fc, % of input; radioactive equilibrium binding (assay not given). On the procedure: as §2
T6 sequence (P35968 20-764 limits assumed, change not shown, form in doubt): as the sequence (P35968 20-764 limits assumed, change not shown, form in doubt) above
For the molecule B25, the “Binding to 1 nM KDR, %” value was found to be 36%.

For the next assay, the target named is T7, mouse vascular endothelial growth factor receptor-2 Fc chimera (Flk-1-Fc) (mouse, UniProt P35918 20-762).
T7 construct: Purchased from R&D Systems; also called mouse VEGF-R2; not shown: Fc part of the purchased chimera
The experiment in a line: binding to 1 nM Flk-1-Fc, % of input; radioactive equilibrium binding (assay not given). On the procedure: as §2
T7 sequence (P35918 20-762, change not shown): as the sequence (P35918 20-762, change not shown) above
Consider B25, for which the “Binding to 1 nM FLK, %” value was determined as 7%.
